Target: Robo2, human, full-length, non-tagged (human) (UniProt Q9HCK4)
Assay: cell-based or functional assay

Robo2, human, full-length, non-tagged (human), sequence (Q9HCK4 22-1378 limits assumed, form in doubt): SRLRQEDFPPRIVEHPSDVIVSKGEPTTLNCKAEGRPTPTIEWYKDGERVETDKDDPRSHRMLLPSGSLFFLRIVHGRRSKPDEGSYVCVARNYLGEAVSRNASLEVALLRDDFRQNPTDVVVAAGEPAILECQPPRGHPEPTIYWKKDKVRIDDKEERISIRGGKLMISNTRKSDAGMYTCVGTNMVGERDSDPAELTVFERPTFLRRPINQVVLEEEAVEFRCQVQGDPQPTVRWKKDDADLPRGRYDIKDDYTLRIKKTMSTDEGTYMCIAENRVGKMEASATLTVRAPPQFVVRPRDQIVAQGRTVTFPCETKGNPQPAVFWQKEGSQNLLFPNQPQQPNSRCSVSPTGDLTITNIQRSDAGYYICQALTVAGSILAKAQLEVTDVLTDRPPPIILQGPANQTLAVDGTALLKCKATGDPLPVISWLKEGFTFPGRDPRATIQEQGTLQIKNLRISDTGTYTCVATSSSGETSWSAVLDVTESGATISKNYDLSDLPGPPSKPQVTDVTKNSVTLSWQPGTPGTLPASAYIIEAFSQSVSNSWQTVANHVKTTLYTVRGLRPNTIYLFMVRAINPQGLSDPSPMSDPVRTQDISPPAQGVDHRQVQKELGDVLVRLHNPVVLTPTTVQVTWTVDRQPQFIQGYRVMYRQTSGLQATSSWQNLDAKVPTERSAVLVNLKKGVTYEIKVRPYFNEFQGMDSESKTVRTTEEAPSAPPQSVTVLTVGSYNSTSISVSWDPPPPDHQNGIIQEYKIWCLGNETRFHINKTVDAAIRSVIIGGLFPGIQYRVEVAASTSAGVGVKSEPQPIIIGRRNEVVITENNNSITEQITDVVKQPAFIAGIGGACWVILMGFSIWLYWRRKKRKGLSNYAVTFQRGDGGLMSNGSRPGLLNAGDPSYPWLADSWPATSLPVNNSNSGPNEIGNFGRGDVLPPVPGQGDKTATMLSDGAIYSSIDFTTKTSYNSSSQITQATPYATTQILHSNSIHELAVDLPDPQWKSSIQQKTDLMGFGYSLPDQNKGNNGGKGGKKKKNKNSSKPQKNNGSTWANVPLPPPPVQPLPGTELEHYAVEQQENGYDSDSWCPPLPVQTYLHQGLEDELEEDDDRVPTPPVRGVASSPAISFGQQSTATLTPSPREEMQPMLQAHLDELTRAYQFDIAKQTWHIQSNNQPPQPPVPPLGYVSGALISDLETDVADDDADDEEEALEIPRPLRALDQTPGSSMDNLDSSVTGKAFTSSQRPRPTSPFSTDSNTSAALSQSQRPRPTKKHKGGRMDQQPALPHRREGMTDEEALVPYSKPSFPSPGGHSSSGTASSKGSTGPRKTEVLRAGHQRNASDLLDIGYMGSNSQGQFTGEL

percentage of CD16/7-NCD clustered HEK cells with F-actin tails (control medium without Slit2: ~80%): 40%
Substance: Slit2 (myc-tagged), in conditioned medium of stably transfected cells (ligand)

— patent US20170114412A1
